Data as given in the DeepSol protein solubility set.

Experiment: soluble on expression in E. coli; label from the status in PepcDB or PDB records

Row | Sequence | soluble on expression in E. coli
1 | GGVIATQMTYKVYMSGTVNGHYFEVEGDGKGRPYEGEQTVKLTVTKGGPLPFAWDILSPQCQYGSIPFTKYPEDIPDYVKQSFPEGFTWERIMNFEDGAVCTVSNDSSIQGNCFTYHVKFSGLNFPPNGPVMQKKTQGWEPSSERLFARGGMLIGNNFMALKLEGGGHYLCEFKTTYKAKKPVKMPGYHYVDRKLDVTNHNKDYTSVEQCEISIARKPVVA | soluble
2 | GHMEELNIDFDVFKKRIELLYSKYNEFEGSPNSLLFVLGSSNAENPYQKTTILHNWLLSYEFPATLIALVPGKVIIITSSAKAKHLQKAIDLFKDPESKITLELWQRNNKEPELNKKLFDDVIALINSAGKTVGIPEKDSYQGKFMTEWNPVWEAAVKENEFNVIDISLGLSKVWEVKDVNEQAFLSVSSKGSDKFMDLLSNEMVRAVDEELKITNAKLSDKIENKIDDVKFLKQLSPDLSALCPPNYKFNFDLLDWTYSPIIQSGKKFDLRVSARSTNDQLYGNGCILASCGIRYNNYCSNITRTFLIDPSEEMANNYDFLLTLQKEIVTNILKPGRTPKEVYESVIEYIEKTKPELVPNFTKNIGSLIGLEFRDSNFILNVKNDYRKIQRGDCFNISFGFNNLKDSQSANNYALQLADTVQIPLDETEPPRFLTNYTKAKSQISFYFNNEEEDNNKKKSSPATKV | soluble
3 | GHMVTMSTEPVSASDKYQKISQLEHILKRPDTYIGSVETQEQLQWIYDEETDCMIEKNVTIVPGLFKIFDEILVNAADNKVRDPSMKRIDVNIHAEEHTIEVKNDGKGIPIEIHNKENIYIPEMIFGHLLTSSNYDDDEKKVTGGRNGYGAKLCNIFSTEFILETADLNVGQKYVQKWENNMSICHPPKITSYKKGPSYTKVTFKPDLTRFGMKELDNDILGVMRRRVYDINGSVRDINVYLNGKSLKIRNFKNYVELYLKSLEKKRQLDNGEDGAAKSDIPTILYERINNRWEVAFAVSDISFQQISFVNSIATTMGGTHVNYITDQIVKKISEILKKKKKKSVKSFQIKNNMFIFINCLIENPAFTSQTKEQLTTRVKDFGSRCEIPLEYINKIMKTDLATRMFEIADANEENALK | soluble
4 | GIDPFTMAKKDGAIEVEGRVVEPLPNAMFRIELENGHKVLAHISGKMRQHYIRILPEDRVVVELSPYDLSRGRIVYRYK | soluble
5 | GIVMTQTPASQSASLGESVTITCLASQTIGTWLAWYQQKPGKSPQLLIYAATSLADGVPSRFSGSGSGTKFSFKISSLQAEDFVSYYCQQLSSTPYTFGGGTKLEIKRADAAPTVSIFPPSSEQLTSGGASVVCFLNNFYPKDINVKWKIDGKERQNGVLNSWTDQDSKDSTYSMSSTLTLTKDEYERHNSYTCEATHKTSTSPIVKSFNRNE | soluble
6 | GKKAVINDSNTPLHLLQPAYQGTYGDLTPEQVKKDIDRVFAYIDKETPARVVDKNTGKVITDYTAMGDEAQLERGAFRLASYEWGVTYSALIAAAETTGDKRYTDYVQNRFRFLAEVAPHFKRVYEEKGKTDSQLLQILTPHALDDAGAVCTAMIKLRLKDESLPVDGLIQNYFDFIINKEYRLADGTFARNRPQRNTLWLDDMFMGIPAVAQMSRYDKEAKNKYLAEAVKQFLQFADRMFIPEKGLYRHGWVESSTDHPAFCWARANGWALLTACELLDVLPEDYPQRPKVMDYFRAHVRGVTALQSGEGFWHQLLDCNDSYLETSATAIYVYCLAHAINKGWIDAIAYGPVAQLGWHAVAGKINEEGQVEGTCVGTGMAFDPAFYYYRPVNVYAAHGYGPVLWAGAEMIRLLNTQHPQMNDSAVQYYQEKQKTTAPIFAVDSE | soluble
7 | GKKCFLTVRGNFSWNEDKIIENDDPRVQYPWMEKRGTNVNGRWGWIAEGLFTSEEEIMDHAKQFGEGHPGQISKVGDIKYKDLNGDGVIDDYDKCLIGQGDVPKIYYGFGADLQLGDFSVGALFAGNAKADRCLGGNAMYPFNDGSGITNLFANITDRWSADNPTNQDVFYPRLHHGNNANQNNMKTSTWWQKDVSFLRLKQLTIAYQLPKKLINQTFLKSARIYVMGTNLLTFSKFKLWDPELNTNNGTAYPNVRTYSVGVNVSF | not soluble
8 | GKLDATLRAIVHTAAELVDARYGALGVRGYDHRLVEFVYEGIDEETRHLIGSLPEGRGVLGALIEEPKPIRLDDISRHPASVGFPLHHPPMRTFLGVPVRIRDEVFGNLYLTEKADGQPFSDDDEVLVQALAAAAGIAVDNARLFEESR | soluble
9 | GKLDEFEAWMRTITKLDIVSLMDFNWGKGGLIKGEKVMNRLGDILGDLHIEDLSIPYTAVAADISNEKEVWLQKGSLLQAIRASISLPLYLMPIEFNGKTLIDGGVLNPVPIA | not soluble
10 | GKLVRRVLSINEVLGYNPDKGGISFIEAFSWDPVTDTHVFSAMGSSYILENKIATRLGIPGKKKKAIYDEIEKRAKILERLSDEGIVNYWEFFNTIAKITKSGMLRIQ | not soluble
11 | GKSLKVSSPRPGLLERLSATIQRNLPGHSMLDRQLTTDGKKNQESRFSFSMIKDRIVHFAVSTKLGSVRDSASKHGGEVTFKFAQTKGAFLDQIMKHQDTSGGVCESISAHWISAHAKGESVFNQLYVGGQKGQFHIDSLVSIKQLQMDGLDPYAEQSQITESWLRENGIQPRSPLEVSGETGSKGTKDLLNAILDTGDKGSGYKKISFEGQMAGHTVAAYVDDQKGVTFFDPNFGEFSFPDKTSFSNWFSQDFWSKSMYNKEIGLGQNFYVSNFEP | not soluble
12 | GLCDGHMHIESGMLTPAEFAAAVIPHGTTTMFTDPHEIANVLGLAGVRMMHDEALMQPVNIFTQMPSCAPSAPGLETTGYEITPEDVAEAMTWPGIIGLGEMMNFPGVTNADPKMLAEIAATQRAGKTVGGHYASPDLGPAFAAYVAGGPADDHEGTCEADAIARVRQGMRSMMRLGSAWYDVETQITAVTEKGLDPRNFILCTDDCHSATLVNDGHMNRVVRHAIACGCDPLIALQMATINTATHFGLERELGSTAPGRRADVILTSDLRDLPIELVIARGQVVAENGKIAVDCPHYDWPD | not soluble
13 | GMARRDISGAVDFAYLEGFAAGDFAVVDEVLALFREQAALWAPMLDPTHPGWKDAVHTVKGAARGVGAFNLGEVCERCEAGQESLEGVRTALDAALLDIAAYAHEQALRSLKG | soluble
14 | GMASSFLEEVDRLITLSGITFHASGTGTPELIKIYQDALGNEFPETYKLFLEKYGTLTFNGVSFYGISKRGLSAASIPDVKFATEQARTFGDINKEMIMIKNSGYGSIFSIDTSIIGSEGEPVIVETNLSFKDNTEKKVVANSFGEFLLEEIELSLTDLG | soluble
15 | GMASSGTEHDAMRARLVDVAQAIVEERGGAGLTLSELAARAGISQANLSRYFETREDLMEAIADYWFHPMVEIMEDVLASDLPPRRKMYEFFARRFVVMRRKWEADPVKLQTYIEVGNDYFEQVRSYIDLADHYLGEIIGEAMSDGAFSGLEVDETISLVNQMCAPYCALNTMTTFMERLSEDKLARIVDAVFDGLSAQDRGARSLTGLRAA | soluble
16 | GMAYEQFAYVYDELMQDVPYPEWVAWVLEQVEPGKRIADIGCGTGTATLLLADHYEVTGVDLSEEMLEIAQEKAMETNRHVDFWVQDMRELELPEPVDAITILCDSLNYLQTEADVKQTFDSAARLLTDGGKLLFDVHSPYKMETLFNGKTYATHAEQSSYIWFADPGEEPLSVVHELTFFIEGEDGRYDRVDETHHQRTYPPEQYITWLREAGFRVCAVTGDFKSDAPTETAERIFFVAEKI | soluble
17 | GMDDLSEFVDQVPLLDHHCHFLIDGKVPNRDDRLAQVSTEADKDYPLADTKNRLAYHGFLALAKEFALDANNPLAAMNDPGYATYNHRIFGHFHFKELLIDTGFVPDDPILDLDQTAELVGIPVKAIYRLETHAEDFMLEHDNFAAWWQAFSNDVKQAKAHGFVGFKSIAAYRVGLHLEPVNVIEAAAGFDTWKHSGEKRLTSKPLIDYMLYHVAPFIIAQDMPLQFHVGYGDADTDMYLGNPLLMRDYLKAFTKKGLKVVLLHCYPYHREAGYLASVFPNLYFDISLLDNLGPSGASRVFNEAVELAPYTRILFASDASTYPEMYGLAARQFKQALVAHFNQLPFVDLAQKKAWINAICWQTSAKLYHQERELRV | soluble
18 | GMDEKPAITKIISGGQTGADRAALDFAIKHHIPYGGWVPKGRLAEGGRVPETYQLQEMPTSDYSKRTEKNVLDSDGTLIISHGILKGGSALTEFFAEQYKKPCLHIDLDRISIEDAATLINSWTVSHHIQVLNIAGPRAGKDPEIYQATMDLLEVFLA | soluble
19 | GMGIHQYFQSLSDLENIYRCPGKFKYQEHSVAEHSYKVTSIAQFFGAVEEDAGNEVNWRALYEKALNHDYSELFIGDIKTPVKYATTELREMLSEVEESMTKNFISREIPATFQPIYRHLLKEGKDSTLEGKILAISDKVDLLYESFGEIQKGNPENIFVEIYSEALATIYEYREMASVKYFLKEILPDMLAEKGIEKTELPQLTTEITTKALRDE | soluble
20 | GMKKIRFAAIGLAHNHIYDMCQQLIDAGAELAGVFESDSDNRAKFTSLFPSVPFAASAEQLITDASIDLIACAVIPCDRAELALRTLDAGKDFFTAKPPLTTLEQLDAVQRRVAETGRKFAVYFNERINVDSALFAGELVQRGEIGRVIQTMGVGPHRERGARPDWFYQKRQYGGILCDIGIHQIEQFLYFTGNTNARVVTSQTANYHHPHHPEFEDFGDAMLLGDNGATGYFRCDWFTPDGLSVWGDGRLTILGTEGYIEIRKYVDLTRGESNVVYLVNGKGEQRFTPAGSVERAFFPDFLRDCRERTENAMSQSHIFKATELSILAQQAANKIA | soluble
21 | GMKLYKLLILDIDGTLRDEVYGIPESAKHAIRLCQKNHCSVVICTGRSMGTIQDDVLSLGVDGYIAGGGNYIQYHGELLYNQSFNQRLIKEVVCLLKKREVAFSIESQEKVFMNQKAKEIFETMNQLKGTNSCINKQHIQEKITYENNIEEYKSQDIHKICLWSNEKVFDEVKDILQDKMELAQRDISSQYYEIIQKDFHKGKAIKRLQERLGVTQKETICFGDGQNDIVMFQASDVTIAMKNSHQQLKDIATSICEDIFDNGIYKELKRRNII | soluble
22 | GMKQDSIITLHPDDRSEQTAEIMRRFNDVFQLHDPAALPELIAEECVIENTVPAPDGARHAGRQACVQLWSAIATQPGTRFDLEETFVAGDRATIRWRYWMADGNSVRGVNLMRVQDGRIVEAMGYVKG | soluble
23 | GMKTIDLADIQAFLYRESRLLDDKAWDAWLDCYRADAVFWMPSWDDADALVTDPQREISLIYYPNRQGLEDRVFRIKTERSSATVPDTRTSHNIANVERESADGDVHTVRFNWHTLSYRYKTVSSYFGMSRYAIDFSGDAPKIVSKYVVLKNDYINQLIDIYHI | soluble
24 | GMMTHYSDNTLKVAHQGFEFFTQGLATGEWQKFLDMLTEDFTFWFPMGEFHGLNVGKERAKEFFTYVSESFHTGIQISSLDRVTSNETTVVFEFRDEGLFLGKPYKNRVAVSFDVRGDKICSYREYFGSDGKSN | soluble
25 | GMNNIIVGMGEALWDVLPEGKKIGGAPANFAYHVSQFGFDSRVVSAVGNDELGDEIMEVFKEKQLKNQIERVDYPTGTVQVTLDDEGVPCYEIKEGVAWDNIPFTDELKRLALNTRAVCFGSLAQRNEVSRATINRFLDTMPDIDGQLKIFDINLRQDFYTKEVLRESFKRCNILKINDEELVTISRMFGYPGIDLQDKCWILLAKYNLKMLILTCGINGSYVFTPGVVSFQETPKVPVADTVGAGDSFTAAFCASILNGKSVPEAHKLAVEVSAYVCTQSGAMPELPVILKDRLL | soluble
